The values below come from paper PMC12280208 (Nature Communications, 2025).

The assay has as its target MVP3-5 (MVP residues 102-274), wild type (human, UniProt Q14764 102-274). As to the kind of experiment: SEC. Background: In gel filtration, larger molecules generally elute earlier.

Chain of MVP3-5 (MVP residues 102-274), wild type (Q14764 102-274): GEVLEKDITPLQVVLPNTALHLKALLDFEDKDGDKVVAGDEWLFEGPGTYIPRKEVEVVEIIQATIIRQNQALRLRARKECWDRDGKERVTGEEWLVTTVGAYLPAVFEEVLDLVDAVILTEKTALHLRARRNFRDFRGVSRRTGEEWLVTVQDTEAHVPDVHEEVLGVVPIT

B1: PARP4 MINT domain (residues 1562-1724), wild type (domain or fragment)
chain: VCIQHWQDAVPWTELLSLQTEDGFWKLTPELGLILNLNTNGLHSFLKQKGIQSLGVKGRECLLDLIATMLVLQFIRTRLEKEGIVFKSLMKMDDASISRNIPWAFEAIKQASEWVRRTEGQYPSICPRLELGNDWDSATKQLLGLQPISTVSPLHRVLHYSQG
As for B1, the binding result is reported as “binds”.
